Source: IntAct's records for PubMed 9171338

B1: Clathrin heavy chain (Saccharomyces cerevisiae), P22137 (parent)
chain: MSDLPIEFTELVDLMSLGISPQFLDFRSTTFESDHFVTVRETKDGTNSVAIVDLAKGNEVTRKNMGGDSAIMHPSQMVISVRANGTIVQIFNLETKSKLKSFTLDEPVIFWRWLSETTLGFVTARSILTSNVFDGNVNAKPQLLTLRHANLNNTQIINFVANKNLDWFAVVGILQENGRIAGRIQLFSKQRNISQAIDGHVAIFTNILLEGNGSTPVQVFVTGNRNATTGAGELRIIEIDHDASLPSQYQKETTDIFFPPDATNDFPIAVQVSEKYGIIYLLTKYGFIHLYELETGTNLFVNRITAESVFTAAPYNHENGIACINKKGQVLAVEISTSQIVPYILNKLSNVALALIVATRGGLPGADDLFQKQFESLLLQNDYQNAAKVAASSTSLRNQNTINRLKNIQAPPGAISPILLYFSTLLDKGKLNKEETIELARPVLQQDRKQLFEKWLKEDKLECSEELGDIVKPFDTTLALACYLRAGAHAKVISCLAELQQFEKIIPYCQKVGYQPNFLVLISSLIRSSPDRASEFAVSLLQNPETASQIDIEKIADLFFSQNHIQQGTSLLLDALKGDTPDQGHLQTRVLEVNLLHAPQVADAILGNNIFSHYDKPTIASLSEKAGLYQRALENYTDIKDIKRCVVHTNALPIDWLVGYFGKLNVEQSLACLKALMDNNIQANIQTVVQVATKFSDLIGPSTLIKLFEDYNATEGLYYYLASLVNLTEDKDVVYKYIEAAAKMKQYREIERIVKDNNVYDPERVKNFLKDANLEDQLPLVIVCDRFDFVHEMILYLYKSQNLKFIETYVQQVNPSKTAQVVGALLDMDCDEAFIQSLLQSVLGQVPINELTTEVEKRNRLKILLPFLEQSLSQGIQDQAVYNALAKIYIDSNNSPEKFLKENDQYDTLDVGHYCEKRDPYLAYIAYEKGQNDDDLIRITNENSMYKYQARYLLERSDLDLWNKVLNQENIHRRQLIDSVISVGIPELTDPEPVSLTVQAFMTNGLKLELIELLEKIILEPSPFNENVALQGLLLLSAIKYEPTKVSSYIEKLDNYDADEIAPLCIEHDLKEEAFEIYDKHEMYGKALKVLIEDIMSLDRAASYADKINTPELWSQIGTAQLDGLRIPDAIESYIKAEDPSNYENVIDIAEQAGKYEELIPFLLMARKTLKEPKIDGALILAYAELNKIHEIENLLAGSNVANLDHVGDKLFENKEYKAARLCYSAVSNYSKLASTLVYLGDYQAAVDTARKASNIKVWKLVNDACIEKKEFKLAQICGLNLIVHAEELDELVERYESNGYFEELISLFEAGLGLERAHMGMFTELAILYSKYEPDKTFEHLKLFWSRINIPKVIRAVEQAHLWSELVFLYAHYDEWDNAALTLIEKSTKDLDHAYFKEVVVKVSNLEIYYKAINFYVKFHPSLLVDLLTSLTPRLDIPRTVKIFSKSDNLPLIKPFLINVLPKNNSVVNQAYHDLMIEEEDYKALQDAVDSYDKFDQLGLASRLESHKLIFFKKIGALLYRRNKKWAKSLSILKEEKLWKDAIETAAISQDPKVVEALLTYFVETGNREGFVALLYAAYNLVRIEFVLEISWMNSLEDYIKPFEISIKKEQNDSIKKITEELAKKSGSNEEHKDGQPLMLMNSAMNVQPTGF
partner: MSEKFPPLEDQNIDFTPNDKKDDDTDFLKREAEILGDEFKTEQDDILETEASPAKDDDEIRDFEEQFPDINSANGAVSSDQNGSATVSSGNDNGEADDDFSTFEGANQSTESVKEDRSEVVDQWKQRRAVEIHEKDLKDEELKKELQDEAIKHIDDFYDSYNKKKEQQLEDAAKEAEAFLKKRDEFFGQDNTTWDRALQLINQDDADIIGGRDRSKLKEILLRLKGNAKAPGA

Variants of: B1
Conditions: with clc1_yeast CLC1, P17891

effect of a mutation on the interaction	Variant
disrupting interaction strength	P1553L;E1590K
disrupting interaction strength	E1590K
disrupting interaction strength	S1331F;S1347F;E1590K
disrupting interaction strength	S1331F;S1347F;E1590A
with no effect	S1331F;S1347F;P1553L
with no effect	S1331F;S1347F
disrupting interaction strength	S1347F;P1553L;E1590K
disrupting interaction strength	S1331F;S1347F;P1553L;E1590K
with no effect	S1347F;P1553L

Variants of: B1
Conditions: with clc1_yeast CLC1, P17891
Remark: another data set of the same source

effect of a mutation on the interaction	Variant
disrupting interaction strength	E1590A
disrupting interaction strength	S1331F;S1347F;E1590A
